Experimental data as given in PMC11098961.

Target: PME-1 (UniProt Q9Y570)
Assay: FLAG-PP2Ac immunoprecipitation, PME-1 blot
Settings: reference: wild type

Substance | binding against the reference (sites S225,T227) | binding against the reference (sites S285)
PP2Ac (from UniProt P67775) S225A/T227A | weaker | –
PP2Ac (from UniProt P67775) S285A | – | weaker
